According to patent US20070123452A1, “Method of selecting novel immunosuppressant” (Astellas Pharma Inc., priority 2002, published 2007):
Where a chain is given by its changes, count along the chain named. Names and notes keep the numbering of the source.

T1: HDAC3, endogenous protein of the transfected cells, O15379
T1 chain: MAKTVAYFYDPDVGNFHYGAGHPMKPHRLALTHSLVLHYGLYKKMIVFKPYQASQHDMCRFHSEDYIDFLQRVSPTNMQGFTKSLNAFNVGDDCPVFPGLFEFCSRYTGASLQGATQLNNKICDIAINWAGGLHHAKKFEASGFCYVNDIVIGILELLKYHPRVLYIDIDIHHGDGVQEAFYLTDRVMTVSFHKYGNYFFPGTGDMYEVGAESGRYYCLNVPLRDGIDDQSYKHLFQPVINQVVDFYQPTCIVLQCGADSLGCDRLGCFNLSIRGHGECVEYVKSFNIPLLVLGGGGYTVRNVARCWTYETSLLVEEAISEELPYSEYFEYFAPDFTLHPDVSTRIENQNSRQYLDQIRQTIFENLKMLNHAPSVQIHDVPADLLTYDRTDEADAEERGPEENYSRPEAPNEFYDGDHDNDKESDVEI

B1: HDAC4 dominant negative variant (H863L) with C-terminal Flag (expressed from pEAK-HDAC4 (H863L)) (protein)
chain: MSSQSHPDGLSGRDQPVELLNPARVNHMPSTVDVATALPLQVAPSAVPMDLRLDHQFSLPVAEPALREQQLQQELLALKQKQQIQRQILIAEFQRQHEQLSRQHEAQLHEHIKQQQEMLAMKHQQELLEHQRKLERHRQEQELEKQHREQKLQQLKNKEKGKESAVASTEVKMKLQEFVLNKKKALAHRNLNHCISSDPRYWYGKTQHSSLDQSSPPQSGVSTSYNHPVLGMYDAKDDFPLRKTASEPNLKLRSRLKQKVAERRSSPLLRRKDGPVVTALKKRPLDVTDSACSSAPGSGPSSPNNSSGSVSAENGIAPAVPSIPAETSLAHRLVAREGSAAPLPLYTSPSLPNITLGLPATGPSAGTAGQQDTERLTLPALQQRLSLFPGTHLTPYLSTSPLERDGGAAHSPLLQHMVLLEQPPAQAPLVTGLGALPLHAQSLVGADRVSPSIHKLRQHRPLGRTQSAPLPQNAQALQHLVIQQQHQQFLEKHKQQFQQQQLQMNKIIPKPSEPARQPESHPEETEEELREHQALLDEPYLDRLPGQKEAHAQAGVQVKQEPIESDEEEAEPPREVEPGQRQPSEQELLFRQQALLLEQQRIHQLRNYQASMEAAGIPVSFGGHRPLSRAQSSPASATFPVSVQEPPTKPRFTTGLVYDTLMLKHQCTCGSSSSHPEHAGRIQSIWSRLQETGLRGKCECIRGRKATLEELQTVHSEAHTLLYGTNPLNRQKLDSKKLLGSLASVFVRLPCGGVGVDSDTIWNEVHSAGAARLAVGCVVELVFKVATGELKNGFAVVRPPGHHAEESTPMGFCYFNSVAVAAKLLQQRLSVSKILIVDWDVHHGNGTQQAFYSDPSVLYMSLLRYDDGNFFPGSGAPDEVGTGPGVGFNVNMAFTGGLDPPMGDAEYLAAFRTVVMPIASEFAPDVVLVSSGFDAVEGHPTPLGGYNLSARCFGYLTKQLMGLAGGRIVLALEGGHDLTAICDASEACVSALLGNELDPLPEKVLQQRPNANAVRSMEKVMEIHSKYWRCLQRTTSTAGRSLIEAQTCENEEAETVTAMASLSVGVKPAEKRPDEEPMEEEPPLDYKDDDDK
B2: HDAC4 dominant negative variant (H802K, H803L) with C-terminal Flag (expressed from pEAK-HDAC4 (H802K, H803L)) (protein)
chain: B1 chain with H802K, H803L, L863H

Legend:
[1] = target: T1, HDAC3, endogenous protein of the …
[2] = target: N-CoR (nuclear receptor corepressor), endogenous protein of the transfected cells, O75376
N-CoR (nuclear receptor corepressor), endogenous protein of the transfected cells, O75376, sequence (O75376 whole entry): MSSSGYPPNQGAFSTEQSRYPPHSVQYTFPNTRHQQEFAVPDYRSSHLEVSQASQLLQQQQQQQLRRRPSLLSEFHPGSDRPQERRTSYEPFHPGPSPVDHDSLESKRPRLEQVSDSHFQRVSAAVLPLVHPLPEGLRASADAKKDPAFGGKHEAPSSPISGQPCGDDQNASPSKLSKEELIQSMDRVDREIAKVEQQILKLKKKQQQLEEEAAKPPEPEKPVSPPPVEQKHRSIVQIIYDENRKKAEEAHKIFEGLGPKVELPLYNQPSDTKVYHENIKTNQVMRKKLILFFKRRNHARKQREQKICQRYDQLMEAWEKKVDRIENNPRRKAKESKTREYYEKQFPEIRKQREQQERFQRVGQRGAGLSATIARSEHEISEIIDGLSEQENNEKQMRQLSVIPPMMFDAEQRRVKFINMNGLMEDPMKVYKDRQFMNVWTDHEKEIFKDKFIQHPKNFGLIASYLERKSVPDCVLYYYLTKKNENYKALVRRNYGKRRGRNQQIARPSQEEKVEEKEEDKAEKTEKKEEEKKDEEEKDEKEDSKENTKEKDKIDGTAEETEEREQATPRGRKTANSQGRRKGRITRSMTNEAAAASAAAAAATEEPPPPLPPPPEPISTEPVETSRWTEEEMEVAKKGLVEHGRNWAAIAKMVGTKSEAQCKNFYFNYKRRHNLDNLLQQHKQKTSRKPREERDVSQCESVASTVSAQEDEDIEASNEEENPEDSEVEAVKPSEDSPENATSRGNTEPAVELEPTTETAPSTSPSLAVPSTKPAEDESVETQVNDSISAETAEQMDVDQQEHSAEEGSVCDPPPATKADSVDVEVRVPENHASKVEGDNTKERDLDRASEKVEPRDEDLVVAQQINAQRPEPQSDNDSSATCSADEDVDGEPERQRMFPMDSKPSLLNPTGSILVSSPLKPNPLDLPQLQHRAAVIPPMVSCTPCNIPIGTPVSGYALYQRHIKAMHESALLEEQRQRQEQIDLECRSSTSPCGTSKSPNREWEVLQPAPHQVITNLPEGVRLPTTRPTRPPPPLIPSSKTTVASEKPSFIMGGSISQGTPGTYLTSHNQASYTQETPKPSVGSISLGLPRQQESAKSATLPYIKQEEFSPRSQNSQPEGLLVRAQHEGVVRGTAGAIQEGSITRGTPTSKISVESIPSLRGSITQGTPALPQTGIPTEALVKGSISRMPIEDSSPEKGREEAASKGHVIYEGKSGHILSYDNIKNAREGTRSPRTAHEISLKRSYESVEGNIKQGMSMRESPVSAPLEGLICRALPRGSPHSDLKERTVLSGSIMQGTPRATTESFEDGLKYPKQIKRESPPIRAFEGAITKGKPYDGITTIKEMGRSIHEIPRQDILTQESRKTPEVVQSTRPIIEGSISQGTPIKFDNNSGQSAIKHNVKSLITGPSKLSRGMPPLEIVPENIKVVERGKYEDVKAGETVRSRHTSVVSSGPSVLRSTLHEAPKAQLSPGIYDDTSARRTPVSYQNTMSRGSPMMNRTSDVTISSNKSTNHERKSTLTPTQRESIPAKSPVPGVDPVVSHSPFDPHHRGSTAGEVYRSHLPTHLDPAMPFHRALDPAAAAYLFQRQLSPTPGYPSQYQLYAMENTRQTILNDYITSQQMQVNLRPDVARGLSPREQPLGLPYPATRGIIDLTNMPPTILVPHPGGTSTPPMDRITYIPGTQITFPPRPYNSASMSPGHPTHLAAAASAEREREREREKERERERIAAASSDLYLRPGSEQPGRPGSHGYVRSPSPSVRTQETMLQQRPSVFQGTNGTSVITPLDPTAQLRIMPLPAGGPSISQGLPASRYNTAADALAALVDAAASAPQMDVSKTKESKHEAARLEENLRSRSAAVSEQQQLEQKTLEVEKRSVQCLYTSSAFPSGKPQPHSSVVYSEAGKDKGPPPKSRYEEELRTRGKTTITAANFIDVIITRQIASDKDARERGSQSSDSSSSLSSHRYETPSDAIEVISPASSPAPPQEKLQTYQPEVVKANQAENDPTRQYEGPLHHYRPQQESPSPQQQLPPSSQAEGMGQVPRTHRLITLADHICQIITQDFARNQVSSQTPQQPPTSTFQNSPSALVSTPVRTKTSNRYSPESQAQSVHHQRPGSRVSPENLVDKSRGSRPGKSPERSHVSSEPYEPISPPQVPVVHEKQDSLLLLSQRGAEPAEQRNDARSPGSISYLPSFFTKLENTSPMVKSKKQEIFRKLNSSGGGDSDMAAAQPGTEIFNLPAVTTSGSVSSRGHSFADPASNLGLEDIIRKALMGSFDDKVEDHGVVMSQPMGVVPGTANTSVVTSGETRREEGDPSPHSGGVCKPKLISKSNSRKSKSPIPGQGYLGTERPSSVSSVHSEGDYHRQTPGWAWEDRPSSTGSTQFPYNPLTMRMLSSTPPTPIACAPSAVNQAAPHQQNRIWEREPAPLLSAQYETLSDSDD

Protein	HDAC activity with [3H]-labeled acetylated histone as a substrate [1]	HDAC activity with [3H]-labeled acetylated histone as a substrate [2]
B1	had decreased HDAC activity compared to wild-type HDAC4	had decreased HDAC activity compared to wild-type HDAC4
B2	had decreased HDAC activity compared to wild-type HDAC4	had decreased HDAC activity compared to wild-type HDAC4
